Data on 33 molecules can be found in patent US20100075897A1, “METHOD FOR S[…] BIOACTIVE PEPTIDES AND APPLICATION THEREOF” (JINAN UNIVERSITY, priority 2008, published 2010).

Numbering of substitutions follows the chain as printed. Read-outs that look alike come from different tables or passages of the source. Ends that are not written are not given here.

Assay [1] addresses GLP-1 receptor. To be noted: CHO/GLP-1R, competition with 125I-GLP-1; fusion polypeptides after treatment with thrombin and DPP IV; read-out: Receptor binding affinity IC50. As to the method: (§1) The actual experimental steps were extracted from method as described by Montrose-Rafizadeh with proper modification as following:
(§2) (2) After cultured, removing supernatant, washing cells with cold PBS for three times, and then mixing with 0.5 mL 0.5 mol/L NaOH and 0.1% (mg/mL) SDS for 10 minutes. Irradiation of the cell lysis was determined by Apec-Series […] (ICN Biomedicals, Inc., Costa Mesa, Calif.).

Assay [2] addresses GLP-1 receptor. It counts as cell-based. To be noted: CHO/GLP-1R, 30 minutes; GLP-1 released from ABP-LK-GLP; read-out: cAMP production EC50. The protocol: Samples were rotated and then centrifuged for 5 minutes (2000 g, 4° C.) to acquire precipitation. Supernatant was removed by vacuum and then the precipitation was dissolved into 300 μL of […] Tris buffer (pH7.5, containing […] EDTA), added with sodium bicarbonate (0.15 mg/mL) and zinc sulfate (0.15 mg/mL), followed by being placed on ice for 15 minutes. Centrifugation was performed at 2000 g at 4° C. for […] to remove precipitation and obtain a supernatant. The supernatant was analyzed with [^3H] cAMP competition assay kit (Amersham Biotech, QC).
For orientation: Changes in cAMP serve as a functional read-out for many G protein-coupled receptors.

Assay [3] concerns the target T1, GLP-1 receptor.
T1 chain: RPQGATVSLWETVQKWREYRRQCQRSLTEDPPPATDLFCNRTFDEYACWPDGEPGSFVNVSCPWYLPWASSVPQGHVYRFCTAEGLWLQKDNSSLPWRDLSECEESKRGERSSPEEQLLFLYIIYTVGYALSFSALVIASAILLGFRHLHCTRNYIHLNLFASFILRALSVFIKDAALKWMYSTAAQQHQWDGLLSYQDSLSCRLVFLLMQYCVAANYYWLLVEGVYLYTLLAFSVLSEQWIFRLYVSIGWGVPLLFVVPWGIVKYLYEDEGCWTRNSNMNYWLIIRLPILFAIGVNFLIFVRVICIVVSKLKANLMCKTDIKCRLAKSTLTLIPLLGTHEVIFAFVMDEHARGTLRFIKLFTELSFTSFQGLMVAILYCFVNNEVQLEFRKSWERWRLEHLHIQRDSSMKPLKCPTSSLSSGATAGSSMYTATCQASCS
In words: cell-based or functional assay.

Assay [4] concerns the target T1, GLP-1 receptor. In words: competition with 125I-GLP-1 on CHO/GLP-1R cells; polypeptide digested with thrombin and DPP IV first. As to the method:
as §1, §2

For assay [5], the target named is T2, human serum albumin (human, UniProt P02768 25-609).
T2 construct: Bought protein; coated on plates (ELISA) or coupled to a CM5 chip (SPR); also called HSA; human albumin
T2 sequence (P02768 25-609 limits assumed): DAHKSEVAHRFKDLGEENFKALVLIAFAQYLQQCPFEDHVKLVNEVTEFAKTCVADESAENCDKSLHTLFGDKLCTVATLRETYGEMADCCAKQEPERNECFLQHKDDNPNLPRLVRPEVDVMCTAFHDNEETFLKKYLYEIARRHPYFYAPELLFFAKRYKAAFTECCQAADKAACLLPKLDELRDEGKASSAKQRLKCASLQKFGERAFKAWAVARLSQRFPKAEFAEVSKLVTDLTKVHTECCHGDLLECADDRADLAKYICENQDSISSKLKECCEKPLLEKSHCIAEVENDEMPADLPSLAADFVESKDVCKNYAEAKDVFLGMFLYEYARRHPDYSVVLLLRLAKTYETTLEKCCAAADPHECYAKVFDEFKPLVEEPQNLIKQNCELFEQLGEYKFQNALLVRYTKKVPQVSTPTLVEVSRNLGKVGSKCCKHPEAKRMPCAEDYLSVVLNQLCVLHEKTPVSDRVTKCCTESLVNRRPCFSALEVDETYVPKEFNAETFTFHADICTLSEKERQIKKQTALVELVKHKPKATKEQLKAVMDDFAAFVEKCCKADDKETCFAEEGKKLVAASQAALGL
Briefly: phage ELISA on plate-coated HSA, Table 3 absorbance (sample minus blank), dilution column 3 of 12.

The target in assay [6] is T1, GLP-1 receptor. In words: competition with 125I-GLP-1 on CHO/GLP-1R cells.
The target in assay [7] is T2, human serum albumin. In words: phage ELISA on plate-coated HSA, sample row, dilution column 2 of 12.
Assay [8] addresses T2, human serum albumin. Briefly: phage ELISA on plate-coated HSA, Table 3 absorbance (sample minus blank), dilution column 1 of 12. A general note: An ELISA detects its analyte on a solid surface through an enzyme-linked reagent.
Assay [9] concerns the target T2, human serum albumin. Briefly: phage ELISA on plate-coated HSA, sample row, dilution column 1 of 12.
The target of assay [10] is T2, human serum albumin. In words: phage ELISA on plate-coated HSA, Table 3 absorbance (sample minus blank), dilution column 2 of 12.

In the case of “PNICLPRWGCLWDFNPRGA HAEGTFTSDVSSYLEGQAAKEFIAWLVKGRG [DP4.1]”, the half-inhibitory concentration (IC50) in assay [1] worked out at 2.5 ± 0.8 nM. The EC50 in [2] is 19 ± 2.1 nM.

“PSSLLHWTHKIPALFNPRGS HAEGTFTSDVSSYLEGQAAKEFIAWLVKGRG [DP8.3]”: the IC50 in assay [1] came to 2.5 ± 0.6 nM. The EC50 in assay [2] is 23 ± 2.2 nM.

For the molecule “LPHSHRAHSLPPFNPRPP HAEGTFTSDVSSYLEGQAAKEFIAWLVKGRG [PP6.2]”, in assay [1], the IC50 worked out at 2.3 ± 0.8 nM. Further, in [2], the EC50 worked out at 21 ± 2.1 nM.

“PDICLPRWGCLWEFNPRGA HAEGTFTSDVSSYLEGQAAKEFIAWLVKGRG [DP3.1]”: the IC50 in assay [1] is 2.1 ± 0.5 nM. Also, in assay [2], the EC50 came to 23 ± 2 nM.

Consider “LPHSHRAHSLPPFNPRPA HAEGTFTSDVSSYLEGQAAKEFIAWLVKGRG [PA6.2]”, for which the IC50 in assay [1] is 2.2 ± 0.7 nM. The EC50 in [2] is 23 ± 2.4 nM.

Regarding “PLPHSHRAHSLPPFNPRGP HAEGTFTSDVSSYLEGQAAKEFIAWLVKGRG [DP6.2]”, the IC50 in [1] was 2.1 ± 0.8 nM. In addition, the EC50 in assay [2] came out at 23 ± 2.1 nM.

B1: DP4.3 fusion polypeptide (peptide)
peptide: PNICLPRWGCLWDFNPRGSHAEGTFTSDVSSYLEGQAAKEFIAWLVKGRG
notes: ABP-LK-GLP fusion polypeptide; also called ABP-LK-GLP
B1: the “cAMP production EC50” value in [3] is 18 nM. This molecule gave an IC50 in [4] of 2.1 nM.

B2: DP4.1 fusion polypeptide (peptide)
peptide: B1 peptide with S19A
notes: as for B1
For B2, the “cAMP production EC50” value in [3] worked out at 19 nM. This molecule also had an IC50 in [4] of 2.5 nM.

B3: DP3.3 fusion polypeptide (peptide)
peptide: B1 peptide with N2D, D13E
notes: as for B1
As for B3, in assay [3], the “cAMP production EC50” value turned out to be 21 nM. Also, the IC50 in assay [4] was determined as 2.3 nM.

B4: DP3.1 fusion polypeptide (peptide)
peptide: B1 peptide with N2D, D13E, S19A
notes: as for B1
Regarding B4, the “cAMP production EC50” value in [3] was 23 nM. In addition, the IC50 in assay [4] stood at 2.1 nM.

B5: DP3.2 fusion polypeptide (peptide)
peptide: B1 peptide with N2D, D13E, S19P
notes: as for B1
For the molecule B5, the “cAMP production EC50” value in assay [3] was determined as 19 nM. In addition, the 50% inhibitory concentration (IC50) in assay [4] stood at 2.3 nM.

B6: Phage ID NO. 2 (M13 phage displaying the peptide of SEQ ID NO. 2, DVCLPQWGCLWG) (peptide)
peptide: DVCLPQWGCLWG
modifications: not fully specified (bridges); cysteine pairing not given here; also: displayed on M13 phage coat protein
notes: Tested as whole phage particles, not as free peptide; not shown: not described
For the molecule B6, in assay [5], the “absorbance at 405 nm” value is 0.04.

B7: M6.1 fusion polypeptide (peptide)
peptide: LPHSHRAHSLPPFNPRGAHAEGTFTSDVSSYLEGQAAKEFIAWLVKGRG
notes: as for B1
Turning to B7, the “cAMP production EC50” value in [3] is 24 nM. Further, the concentration for half-maximal inhibition (IC50) in assay [4] was found to be 2.2 nM.

B8: M6.2 fusion polypeptide (peptide)
peptide: B7 peptide with A18P
notes: as for B1
On to B8, for which, in [3], the “cAMP production EC50” value is 21 nM. In assay [4], this molecule registered an IC50 of 2.3 nM.

B9: PA6.2 fusion polypeptide (peptide)
peptide: B7 peptide with G17P
notes: as for B1
For the molecule B9, in assay [3], the “cAMP production EC50” value worked out at 23 nM. In [4], this molecule displayed an IC50 of 2.2 nM.

B10: PP6.2 fusion polypeptide (peptide)
peptide: B7 peptide with G17P, A18P
notes: as for B1
In the case of B10, the “cAMP production EC50” value in assay [3] was determined as 21 nM. The IC50 in assay [4] came to 2.3 nM.

B11: M3.1 fusion polypeptide (peptide)
peptide: DICLPRWGCLWEFNPRGAHAEGTFTSDVSSYLEGQAAKEFIAWLVKGRG
notes: as for B1
Take B11: the “cAMP production EC50” value in [3] was found to be 22 nM. The same molecule had an IC50 in [4] of 2.2 nM.

B12: M4.2 fusion polypeptide (peptide)
peptide: B11 peptide with D1N, E12D, A18P
notes: as for B1
For the molecule B12, in assay [3], the “cAMP production EC50” value stood at 21 nM. In [4], the IC50 came out at 2.2 nM.

B13: M4.3 fusion polypeptide (peptide)
peptide: B11 peptide with D1N, E12D, A18S
notes: as for B1
Regarding B13, the “cAMP production EC50” value in assay [3] turned out to be 19 nM. In assay [4], the IC50 came to 2.2 nM.

B14: M3.2 fusion polypeptide (peptide)
peptide: B11 peptide with A18P
notes: as for B1
Take B14: the “cAMP production EC50” value in assay [3] was determined as 21 nM. In assay [4], the IC50 was 2.1 nM.

B15: FN-GLP (peptide)
peptide: FNPRHAEGTFTSDVSSYLEGQAAKEFIAWLVKGRG
notes: GLP-1(7-37) with N-terminal FNPR
With B15, in assay [3], the “cAMP production EC50” value was > 1000 nM. For the same molecule, the IC50 in assay [6] turned out to be 450 nM.

B16: LV-GLP (peptide)
peptide: B15 peptide with F1L, N2V
notes: GLP-1(7-37) with N-terminal LVPR
B16: the “cAMP production EC50” value in assay [3] is > 1000 nM. This molecule returned an IC50 in [6] of 467 nM.

B17: DP6.1 fusion polypeptide (peptide)
peptide: PLPHSHRAHSLPPFNPRGAHAEGTFTSDVSSYLEGQAAKEFIAWLVKGRG
notes: as for B1
Consider B17, for which the “cAMP production EC50” value in assay [3] stood at 23 nM. In assay [4], this molecule yielded an IC50 of 2 nM.

B18: DP6.2 fusion polypeptide (peptide)
peptide: B17 peptide with A19P
notes: as for B1
With B18, the “cAMP production EC50” value in [3] was 23 nM. In assay [4], this molecule had an IC50 of 2.1 nM.

B19: DP8.3 fusion polypeptide (peptide)
peptide: PSSLLHWTHKIPALFNPRGSHAEGTFTSDVSSYLEGQAAKEFIAWLVKGRG
notes: ABP-LK-GLP fusion polypeptide, copied as printed with PSS at the N-terminus (DP8.1 and DP8.2 have PS); also called ABP-LK-GLP
On to B19, for which the “cAMP production EC50” value in assay [3] came out at 23 nM. The concentration for half-maximal inhibition (IC50) in assay [4] is 2.5 nM.

B20: Phage ID NO. 6 (M13 phage displaying the peptide of SEQ ID NO. 6, LPHSHRAHSLPP) (peptide)
peptide: LPHSHRAHSLPP
modifications: also: displayed on M13 phage coat protein
notes: as for B6
For B20, the “absorbance at 405 nm” value came out at 0.05 in assay [5] and 0.09 in assay [7].

B21: Phage ID NO. 1 (M13 phage displaying the peptide of SEQ ID NO. 1, NVCLPKWGCLWE) (peptide)
peptide: NVCLPKWGCLWE
modifications: not fully specified (bridges); cysteine pairing not given here; also: displayed on M13 phage coat protein
notes: as for B6
As to B21, the “absorbance at 405 nm” value in [7] worked out at 0.09; in assay [8], 0.04.

B22: DP8.1 fusion polypeptide (peptide)
peptide: PSLLHWTHKIPALFNPRGAHAEGTFTSDVSSYLEGQAAKEFIAWLVKGRG
notes: as for B1
As for B22, the “cAMP production EC50” value in [3] is 24 nM. In assay [4], this molecule registered a 50% inhibitory concentration (IC50) of 2.2 nM.

B23: DP8.2 fusion polypeptide (peptide)
peptide: B22 peptide with A19P
notes: as for B1
Regarding B23, in assay [3], the “cAMP production EC50” value came to 22 nM. The molecule also yielded an IC50 in assay [4] of 1.9 nM.

B24: Phage ID NO. 4 (M13 phage displaying the peptide of SEQ ID NO. 4, NICLPRWGCLWD) (peptide)
peptide: NICLPRWGCLWD
modifications: not fully specified (bridges); cysteine pairing not given here; also: displayed on M13 phage coat protein
notes: as for B6
Consider B24, for which the “absorbance at 405 nm” value in [9] stood at 0.08; in assay [10], 0.04.

B25: M8.1 fusion polypeptide (peptide)
peptide: SLLHWTHKIPALFNPRGAHAEGTFTSDVSSYLEGQAAKEFIAWLVKGRG
notes: as for B1
In the case of B25, the “cAMP production EC50” value in [3] stood at 24 nM. The molecule further showed an IC50 in assay [4] of 2.2 nM.

B26: M8.2 fusion polypeptide (peptide)
peptide: B25 peptide with A18P
notes: as for B1
With B26, in assay [3], the “cAMP production EC50” value amounted to 21 nM. Moreover, the IC50 in [4] was 1.9 nM.

B27: M8.3 fusion polypeptide (peptide)
peptide: B25 peptide with A18S
notes: as for B1
As for B27, the “cAMP production EC50” value in assay [3] was determined as 21 nM. Also, in assay [4], the concentration for half-maximal inhibition (IC50) is 2.2 nM.

In general, IC50 refers to the midpoint of a concentration-inhibition curve. As a reminder, the EC50 is the midpoint of the concentration-response curve.
